Laboratory results taken from paper PMC5477518.

Biological target: LRP1, endogenous on primary cortical neurons (mouse (endogenous in primary cortical neurons)) (UniProt Q91ZX7)
Sequence of UniProt Q91ZX7 (Q91ZX7 20-4545): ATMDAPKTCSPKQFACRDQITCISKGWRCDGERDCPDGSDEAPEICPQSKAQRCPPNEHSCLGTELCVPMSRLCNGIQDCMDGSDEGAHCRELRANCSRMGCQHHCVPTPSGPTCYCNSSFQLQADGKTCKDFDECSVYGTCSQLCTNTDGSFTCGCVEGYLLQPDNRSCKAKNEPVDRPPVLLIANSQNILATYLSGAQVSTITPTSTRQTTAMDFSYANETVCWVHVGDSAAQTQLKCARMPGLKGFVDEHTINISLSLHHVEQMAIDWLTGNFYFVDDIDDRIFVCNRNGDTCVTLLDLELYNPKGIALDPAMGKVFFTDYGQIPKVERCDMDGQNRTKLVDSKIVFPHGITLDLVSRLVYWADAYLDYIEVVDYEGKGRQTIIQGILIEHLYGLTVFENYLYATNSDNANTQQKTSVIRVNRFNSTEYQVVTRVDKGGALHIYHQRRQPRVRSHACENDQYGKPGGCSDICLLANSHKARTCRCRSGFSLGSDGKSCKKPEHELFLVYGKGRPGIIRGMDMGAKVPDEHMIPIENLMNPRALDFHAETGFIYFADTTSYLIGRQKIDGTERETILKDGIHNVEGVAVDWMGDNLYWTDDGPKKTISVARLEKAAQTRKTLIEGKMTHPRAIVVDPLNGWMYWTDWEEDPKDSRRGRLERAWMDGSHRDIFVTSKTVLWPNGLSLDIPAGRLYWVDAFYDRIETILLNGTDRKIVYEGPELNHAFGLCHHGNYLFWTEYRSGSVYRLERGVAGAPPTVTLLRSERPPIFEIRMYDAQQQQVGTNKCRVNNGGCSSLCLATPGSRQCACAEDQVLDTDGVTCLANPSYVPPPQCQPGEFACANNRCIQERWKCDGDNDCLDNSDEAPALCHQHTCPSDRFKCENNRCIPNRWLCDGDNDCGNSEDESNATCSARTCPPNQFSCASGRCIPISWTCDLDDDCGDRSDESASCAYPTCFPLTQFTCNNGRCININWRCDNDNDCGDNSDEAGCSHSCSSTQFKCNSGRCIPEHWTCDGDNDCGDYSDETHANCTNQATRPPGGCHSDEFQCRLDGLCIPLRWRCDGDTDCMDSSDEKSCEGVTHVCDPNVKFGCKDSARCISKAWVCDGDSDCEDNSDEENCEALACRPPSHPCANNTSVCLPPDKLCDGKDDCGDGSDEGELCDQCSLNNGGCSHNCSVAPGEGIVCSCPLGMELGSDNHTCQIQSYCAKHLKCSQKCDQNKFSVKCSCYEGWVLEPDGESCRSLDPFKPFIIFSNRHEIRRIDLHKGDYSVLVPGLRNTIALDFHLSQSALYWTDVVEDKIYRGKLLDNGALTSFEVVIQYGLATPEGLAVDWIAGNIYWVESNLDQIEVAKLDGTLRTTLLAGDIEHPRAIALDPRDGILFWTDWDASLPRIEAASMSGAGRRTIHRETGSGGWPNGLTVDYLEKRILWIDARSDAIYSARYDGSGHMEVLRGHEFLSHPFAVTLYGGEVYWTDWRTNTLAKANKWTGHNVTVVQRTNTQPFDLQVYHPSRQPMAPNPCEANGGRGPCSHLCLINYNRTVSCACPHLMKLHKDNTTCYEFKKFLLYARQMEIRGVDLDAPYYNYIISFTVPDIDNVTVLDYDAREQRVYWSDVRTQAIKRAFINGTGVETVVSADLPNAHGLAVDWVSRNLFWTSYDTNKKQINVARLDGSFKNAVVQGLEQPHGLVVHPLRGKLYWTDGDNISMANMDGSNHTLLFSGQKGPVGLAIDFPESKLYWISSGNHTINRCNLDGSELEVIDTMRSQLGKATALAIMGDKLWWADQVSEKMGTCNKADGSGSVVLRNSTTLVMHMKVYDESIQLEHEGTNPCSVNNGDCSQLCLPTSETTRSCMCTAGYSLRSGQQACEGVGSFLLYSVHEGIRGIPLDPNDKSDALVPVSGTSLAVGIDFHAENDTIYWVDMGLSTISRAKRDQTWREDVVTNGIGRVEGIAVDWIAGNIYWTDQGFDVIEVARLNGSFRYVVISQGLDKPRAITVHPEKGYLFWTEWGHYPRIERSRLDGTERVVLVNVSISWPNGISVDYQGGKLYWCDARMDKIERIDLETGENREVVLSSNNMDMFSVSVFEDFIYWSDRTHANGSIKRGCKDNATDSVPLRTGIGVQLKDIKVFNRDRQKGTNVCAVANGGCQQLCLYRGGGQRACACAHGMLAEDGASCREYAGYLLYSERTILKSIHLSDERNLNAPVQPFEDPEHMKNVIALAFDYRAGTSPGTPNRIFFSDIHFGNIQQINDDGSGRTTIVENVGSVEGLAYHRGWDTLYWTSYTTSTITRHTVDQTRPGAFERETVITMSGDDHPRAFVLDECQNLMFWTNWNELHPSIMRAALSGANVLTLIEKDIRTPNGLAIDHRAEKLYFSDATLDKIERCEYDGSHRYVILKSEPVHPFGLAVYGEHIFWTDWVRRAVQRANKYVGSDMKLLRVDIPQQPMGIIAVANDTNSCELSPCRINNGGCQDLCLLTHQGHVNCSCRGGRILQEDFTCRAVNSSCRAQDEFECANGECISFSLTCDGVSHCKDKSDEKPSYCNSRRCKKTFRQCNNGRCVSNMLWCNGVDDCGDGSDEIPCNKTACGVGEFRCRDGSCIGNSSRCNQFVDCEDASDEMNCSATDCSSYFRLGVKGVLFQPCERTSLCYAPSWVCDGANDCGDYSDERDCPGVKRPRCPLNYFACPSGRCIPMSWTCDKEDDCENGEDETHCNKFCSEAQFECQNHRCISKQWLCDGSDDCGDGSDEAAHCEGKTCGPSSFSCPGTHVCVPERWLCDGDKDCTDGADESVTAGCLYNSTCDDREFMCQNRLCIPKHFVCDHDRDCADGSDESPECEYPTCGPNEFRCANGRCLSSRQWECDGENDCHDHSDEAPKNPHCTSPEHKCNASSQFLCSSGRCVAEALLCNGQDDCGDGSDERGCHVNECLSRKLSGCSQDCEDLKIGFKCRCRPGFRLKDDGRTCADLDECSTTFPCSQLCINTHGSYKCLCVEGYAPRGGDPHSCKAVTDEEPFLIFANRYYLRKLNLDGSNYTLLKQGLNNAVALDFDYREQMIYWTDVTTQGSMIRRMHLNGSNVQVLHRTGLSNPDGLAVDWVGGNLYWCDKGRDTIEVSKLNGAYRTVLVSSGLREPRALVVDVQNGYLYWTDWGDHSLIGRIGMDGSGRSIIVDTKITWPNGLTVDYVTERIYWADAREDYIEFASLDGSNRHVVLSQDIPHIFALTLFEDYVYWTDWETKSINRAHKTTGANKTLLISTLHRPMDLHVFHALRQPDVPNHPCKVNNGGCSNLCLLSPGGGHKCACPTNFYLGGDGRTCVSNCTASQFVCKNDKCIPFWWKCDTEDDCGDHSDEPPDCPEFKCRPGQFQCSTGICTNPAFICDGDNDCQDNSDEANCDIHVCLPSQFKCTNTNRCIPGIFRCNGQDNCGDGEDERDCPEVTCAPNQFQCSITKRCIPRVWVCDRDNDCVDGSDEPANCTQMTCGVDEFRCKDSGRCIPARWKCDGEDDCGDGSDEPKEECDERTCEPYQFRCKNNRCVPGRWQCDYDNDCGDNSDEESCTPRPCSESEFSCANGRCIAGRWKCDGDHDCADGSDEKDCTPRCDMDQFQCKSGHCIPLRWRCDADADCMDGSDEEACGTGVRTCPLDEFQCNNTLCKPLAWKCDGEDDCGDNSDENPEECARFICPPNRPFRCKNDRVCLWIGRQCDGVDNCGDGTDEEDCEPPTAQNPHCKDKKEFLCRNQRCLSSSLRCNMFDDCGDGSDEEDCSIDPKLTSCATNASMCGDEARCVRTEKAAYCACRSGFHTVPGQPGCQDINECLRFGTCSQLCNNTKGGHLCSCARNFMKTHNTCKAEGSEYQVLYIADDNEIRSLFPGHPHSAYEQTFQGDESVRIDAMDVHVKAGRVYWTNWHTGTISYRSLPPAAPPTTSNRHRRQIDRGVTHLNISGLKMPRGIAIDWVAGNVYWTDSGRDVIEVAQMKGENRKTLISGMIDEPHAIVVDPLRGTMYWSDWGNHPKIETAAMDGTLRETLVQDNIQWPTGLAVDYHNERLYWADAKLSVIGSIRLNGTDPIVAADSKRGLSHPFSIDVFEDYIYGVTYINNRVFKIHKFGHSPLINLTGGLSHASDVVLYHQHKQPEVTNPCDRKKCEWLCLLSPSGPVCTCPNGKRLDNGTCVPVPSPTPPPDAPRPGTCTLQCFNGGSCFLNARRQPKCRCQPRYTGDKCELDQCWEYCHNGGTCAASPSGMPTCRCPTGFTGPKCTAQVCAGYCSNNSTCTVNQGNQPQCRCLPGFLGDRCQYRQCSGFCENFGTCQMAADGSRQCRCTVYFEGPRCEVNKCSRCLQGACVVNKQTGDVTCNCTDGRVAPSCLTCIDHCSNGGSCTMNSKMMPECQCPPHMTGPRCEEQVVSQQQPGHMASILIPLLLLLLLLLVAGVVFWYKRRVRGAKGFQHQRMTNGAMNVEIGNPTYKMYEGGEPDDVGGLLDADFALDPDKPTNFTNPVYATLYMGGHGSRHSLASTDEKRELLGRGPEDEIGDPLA

uptake of hPSAP (1 μg/ml) by primary cortical neurons in the presence of GST-RAP (50 μg/ml), immunoblot: 75%
B1: Recombinant his-human PSAP (natural protein)
chain: GPVLGLKECTRGSAVWCQNVKTASDCGAVKHCLQTVWNKPTVKSLPCDICKDVVTAAGDMLKDNATEEEILVYLEKTCDWLPKPNMSASCKEIVDSYLPVILDIIKGEMSRPGEVCSALNLCESLQKHLAELNHQKQLESNKIPELDMTEVVAPFMANIPLLLYPQDGPRSKPQPKDNGDVCQDCIQMVTDIQTAVRTNSTFVQALVEHVKEECDRLGPGMADICKNYISQYSEIAIQMMMHMQPKEICALVGFCDEVKEMPMQTLVPAKVASKNVIPALELVEPIKKHEVPAKSDVYCEVCEFLVKEVTKLIDNNKTEKEILDAFDKMCSKLPKSLSEECQEVVDTYGSSILSILLEEVSPELVCSMLHLCSGTRLPALTVHVTQPKDGGFCEVCKKLVGYLDRNLEKNSTKQEILAALEKGCSFLPDPYQKQCDQFVAEYEPVLIEILVEVMDPSFVCLKIGACPSAHKPLLGTEKCIWGPSYWCQNTETAAQCNAVEHCKRHVWN
